In assay [1] the target is glycoproteins on HeLa cells. Description: SPR imaging on fixed HeLa cells on gold, 50 µg/ml WGA, average of 10 cells, first order kinetic fit.
Assay [2] deals with glycoproteins on HeLa cells. Description: CAR imaging on fixed HeLa cells on glass, 50 µg/ml WGA, average over cells, first order kinetic fit.

B1: wheat germ agglutinin (WGA) with Alexa Fluor 488 tag (protein, UniProt P10968 27-197, looked up)
chain: QRCGEQGSNMECPNNLCCSQYGYCGMGGDYCGKGCQNGACWTSKRCGSQAGGATCTNNQCCSQYGYCGFGAEYCGAGCQGGPCRADIKCGSQAGGKLCPNNLCCSQWGFCGLGSEFCGGGCQSGACSTDKPCGKDAGGRVCTNNYCCSKWGSCGIGPGYCGAGCQSGGCDG
modifications: Alexa Fluor 488 label, site not stated
Usually Kd stands for the equilibrium constant for the complex coming apart. A high value points to lower affinity. A word on the koff: it is a measure of how fast the partners let go of each other. Lower therefore signals a long-lived complex. A word on the kon: it is the second-order rate constant of association. Low readings indicate slower complex formation, high ones faster complex formation. In assay [1], B1 had a Kd of 53 nM, a koff of 0.00013 s⁻¹ and a kon of 2500 M⁻¹ s⁻¹. In assay [2], the Kd is 42 nM, the koff was found to be 0.00026 s⁻¹ and the kon was 6000 M⁻¹ s⁻¹.

(Values after patent US20240118200A1.)
